Test results: patent publication US20100291682, “SYSTEM FOR TRANSPOSING HYPERACTIVE RECOMBINANT DERIVATIVES OF MOS-1 TRANSPOSON” (published 2010)

Columns and labels:
Experiment in all cases: cell_activity; 3T46 transposition in E. coli T5 vs 3T3/WT
Settings in all cases: chain copies: 2
Mos-1 transposase FQ = target: T1, Mos-1 transposase FQ (Drosophila mauritiana, UniProt Q7JQ07 SEQ:1-345, F53Y,Q91R)
T1 sequence: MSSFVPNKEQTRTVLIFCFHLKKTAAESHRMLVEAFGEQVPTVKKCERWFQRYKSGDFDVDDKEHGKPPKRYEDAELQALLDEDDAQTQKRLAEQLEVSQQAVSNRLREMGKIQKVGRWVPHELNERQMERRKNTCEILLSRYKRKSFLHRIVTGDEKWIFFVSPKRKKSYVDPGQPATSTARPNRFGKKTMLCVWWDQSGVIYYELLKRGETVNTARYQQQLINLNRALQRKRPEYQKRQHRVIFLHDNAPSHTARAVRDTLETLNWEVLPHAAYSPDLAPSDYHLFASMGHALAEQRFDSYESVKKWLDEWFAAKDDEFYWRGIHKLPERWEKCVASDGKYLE
Experimental: (§1) Escherichia coli JM109 bacteria were co-transformed with the pBC 3T3 plasmid (comprising a transposition reporter 2 ITR 3′ mariner-like element and the chloramphenicol resistance gene) and with the inducible vector encoding for the transposase (pKK-Tnp or pMal-Tnp) comprising the ampicillin resistance gene. The bacteria selection was performed on ampicillin (100 μg/ml) and chloramphenicol in order to verify the presence of the two plasmids.
(§2) The JM109 bacteria containing both the pBC 3T3 plasmid and the pKK-Tnp (or pMalC2X-Tnp) plasmid were placed in culture for 1 hr at 37° C. in 250 μl of LB. This inoculum was then poured into 5 ml of LB supplemented with 1 mM IPTG. The culture was titrated on LB plates (100 μl of a 1/1000 dilution) and on LB-Tet plates (12.5 μg/ml) (250 μl of the non-diluted culture). The culture induced by IPTG was then cultured for 5 hours at 32° C. (optimal temperature of transposase) under stirring (250 rpm). The bacterial suspension was then titrated on LB plates (100 μl of a 1/250,000 dilution) and on LB-tet plates (100 μl of the undiluted bacterial suspension). The plates were placed at 37° C. overnight. The following day, the colonies were counted on LB and LB-Tet plates, and the transposition frequency (equal to the number of tetracycline bacteria over the number of bacterial per 1 ml of undiluted bacterial suspension) was calculated.
(§3) In order to evaluate the transposition efficiency of systems associating a hyperactive transposase and a pseudo-transposon that is also hyperactive, various combinations were tested in the transposition test in bacteria described in part I, paragraph I-B above.

Mos-1 transposase FQETY = target: T2, Mos-1 transposase FQETY (Drosophila mauritiana, UniProt Q7JQ07 SEQ:1-345, F53Y,Q91R,E137K,T216A,Y237C)
T2 sequence: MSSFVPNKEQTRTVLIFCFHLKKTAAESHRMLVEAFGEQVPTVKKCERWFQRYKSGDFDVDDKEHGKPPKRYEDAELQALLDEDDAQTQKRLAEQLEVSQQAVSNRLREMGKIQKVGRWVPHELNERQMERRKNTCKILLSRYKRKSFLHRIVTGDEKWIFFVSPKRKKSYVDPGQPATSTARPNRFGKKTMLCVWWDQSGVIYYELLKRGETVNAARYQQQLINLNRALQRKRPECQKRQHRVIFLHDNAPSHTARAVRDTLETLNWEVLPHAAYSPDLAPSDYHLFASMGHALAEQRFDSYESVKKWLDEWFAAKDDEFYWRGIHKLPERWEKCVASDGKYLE
Experimental: as §1, §2, §3

Mos-1 transposase FQET = target: T3, Mos-1 transposase FQET (Drosophila mauritiana, UniProt Q7JQ07 SEQ:1-345, F53Y,Q91R,E137K,T216A)
T3 sequence: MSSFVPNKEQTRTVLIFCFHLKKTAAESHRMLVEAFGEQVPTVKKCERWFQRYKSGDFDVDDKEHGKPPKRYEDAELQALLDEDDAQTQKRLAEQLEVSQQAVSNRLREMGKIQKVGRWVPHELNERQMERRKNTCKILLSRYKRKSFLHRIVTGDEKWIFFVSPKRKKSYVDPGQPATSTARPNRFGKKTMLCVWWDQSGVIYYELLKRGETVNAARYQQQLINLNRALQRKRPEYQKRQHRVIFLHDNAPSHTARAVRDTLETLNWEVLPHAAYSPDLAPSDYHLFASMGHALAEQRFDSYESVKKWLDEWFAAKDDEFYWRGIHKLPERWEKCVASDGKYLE
Experimental: as §1, §2, §3

Mos-1 transposase ET = target: T4, Mos-1 transposase ET (Drosophila mauritiana, UniProt Q7JQ07 SEQ:1-345, E137K,T216A)
T4 sequence: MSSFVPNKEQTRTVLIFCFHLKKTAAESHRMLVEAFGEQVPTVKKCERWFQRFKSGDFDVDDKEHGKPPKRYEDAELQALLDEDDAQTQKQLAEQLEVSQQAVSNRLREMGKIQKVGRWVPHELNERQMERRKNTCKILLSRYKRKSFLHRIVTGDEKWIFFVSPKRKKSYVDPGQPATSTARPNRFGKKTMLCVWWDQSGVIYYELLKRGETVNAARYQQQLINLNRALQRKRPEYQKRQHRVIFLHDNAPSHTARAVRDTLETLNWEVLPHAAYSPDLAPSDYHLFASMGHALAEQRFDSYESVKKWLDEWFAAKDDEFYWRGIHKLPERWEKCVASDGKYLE
Experimental: as §1, §2, §3

Mos-1 transposase FT = target: T5, Mos-1 transposase FT (Drosophila mauritiana, UniProt Q7JQ07 SEQ:1-345, F53Y,T216A)
T5 sequence: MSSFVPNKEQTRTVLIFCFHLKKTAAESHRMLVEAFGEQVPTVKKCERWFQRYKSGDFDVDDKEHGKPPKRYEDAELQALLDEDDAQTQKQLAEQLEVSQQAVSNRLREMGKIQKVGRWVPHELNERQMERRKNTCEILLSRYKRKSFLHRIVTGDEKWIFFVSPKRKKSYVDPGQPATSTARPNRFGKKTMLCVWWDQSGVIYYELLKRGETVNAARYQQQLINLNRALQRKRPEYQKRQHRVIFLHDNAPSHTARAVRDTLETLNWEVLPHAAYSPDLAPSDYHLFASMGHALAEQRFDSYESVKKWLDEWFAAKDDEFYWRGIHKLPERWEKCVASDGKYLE
Experimental: as §1, §2, §3

B1: ITR46 (dsDNA)
DNA 1: TCAGGTGTACAAGTATGAGATGTCGTTT
DNA 2: AAACGACATCTCATACTTGTACACCTGA
Mos-1 transposase FQ
  activity: 3.3 fold
Mos-1 transposase FQETY
  activity: 2.3 fold
Mos-1 transposase FQET
  activity: 12.3 fold
Mos-1 transposase ET
  activity: 6.7 fold
Mos-1 transposase FT
  activity: 3.7 fold
